Data published in patent publication US20220306758A1.
Blank lines part the entries; values can stand above or below the binder they belong to.

Molecular target: monkey BCMA-MMH (monkey BCMA with C-terminal myc-myc-hexahistidine tag) (monkey)
Test: SPR, Biacore, mAb captured by anti-hFc, 25 C

Chain of monkey BCMA-MMH (monkey BCMA with C-terminal myc-myc-hexahistidine tag) (monkey) (chain, as listed by the source limits assumed): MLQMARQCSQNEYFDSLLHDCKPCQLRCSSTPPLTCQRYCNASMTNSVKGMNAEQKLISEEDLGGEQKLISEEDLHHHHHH

90 nM mfBCMA.mmh Bind (RU): 1.9 RU
B1: mAb16747 (REGN4515) (antibody, V domains shown)
VH: QVQLVESGGGLVKPGGSLRLSCAASGFTFSDYYISWIRQAPGKGLEWVSYISSSGSSIKYADSVKGRFTISRDNAKNSLYLQMNSLRAEDTAVYYCAREGGNYGMDVWGQGTTVTVSS
VL: DIQMTQSPSSVSASVGDRVTITCRASQGINNWLVWYQQKPGKAPKLLIYAATSLQSGVPSRFSGSGSGTDFTLTISSLQPEDFATYYCQQANSFPPTFGQGTKLEIK

90 nM mfBCMA.mmh Bind (RU): 1.1 RU
B2: mAb16732 (REGN4514) (antibody, V domains shown)
VH: EVQLVESGGGLVQPGRSLRLSCAASGFTFDDYAMHWVRQAPGKGLEWVSGISWNSGNMGYADSVKGRFTISRDNAKNSLFLQMHSLRAEDTAFYYCAKVRLTAFDFWGQGTLVTVSS
VL: DIQMTQSPSSLSASVGDRVTITCRTSQSIGNYLNWFQQKPGKAPKLLIYTASSLQNGVPSRFTGSGSGTDFTLTISSLQPEDFVIYYCQQSFSTPYTFGQGTKLEIK
